From the supplement of paper PMC10567573

Experiment: protein stability index of a GFP-peptide fusion (GPS, HEK-293T) (PSI 1-6); higher = more stable
Settings: c terminus: native
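Note: lentivirally expressed fusion library, cells FACS-sorted into six equal-sized GFP/DsRed ratio bins, PSI computed from sequencing read fractions per bin weighted by bin number.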

B1: POLD2 addR (peptide)
chain: CQPISFSGFGAEDDDLGGLGLGPR
protein stability index (parent: NP_006221.1): 4.36

B2: BEX2 addR (peptide)
chain: HSLRAVSTDPPHHDHHDEFCLMPR
protein stability index (parent: NP_116010.1): 4.61

B3: SNF8 addR (peptide)
chain: LPALFTDLYSQEITAEEAREALPR
protein stability index (parent: NP_009172.2): 3.55

B4: TRPA1 addR (peptide)
chain: EQRNSRWNTVLRAVKAKTHHLEPR
protein stability index (parent: NP_015628.1): 4.5
